{
  "source": "patent US20240132563A1",
  "assay_in_all_cases": "cell-based or functional assay",
  "key": {"[1]": {"biological_target": "IL-18 polypeptide C144 (V11I, C38A, K53A, T63A, C76A, C127A) (human) (UniProt Q14116)", "sequence (Q14116 37-193 V47I/C74A/K89A/T99A/C112A/C163A)": "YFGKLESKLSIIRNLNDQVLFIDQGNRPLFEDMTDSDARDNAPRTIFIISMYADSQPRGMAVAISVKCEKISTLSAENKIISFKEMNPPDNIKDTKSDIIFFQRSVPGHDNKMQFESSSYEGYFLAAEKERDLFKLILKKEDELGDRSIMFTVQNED"}, "[2]": {"biological_target": "IL-18 polypeptide C153 (V11I, D37A, C38A, K53A, C76A, C127A) (human) (UniProt Q14116)", "sequence (Q14116 37-193 V47I/D73A/C74A/K89A/C112A/C163A)": "as the sequence (Q14116 37-193 V47I/C74A/K89A/T99A/C112A/C163A) above, with D37A, A63T counted along it"}, "[3]": {"biological_target": "IL-18 polypeptide C161 (K8R, V11I, C38A, C76A, Q103E, C127A) (human) (UniProt Q14116)", "sequence (Q14116 other isoform, or with tags, fused parts or gaps V11I C38A C76A Q103E C127A V11I C38A C76A Q103E C127A)": "as the sequence (Q14116 37-193 V47I/C74A/K89A/T99A/C112A/C163A) above, with K8R, A53K, A63T, Q103E counted along it"}, "[4]": {"biological_target": "IL-18 polypeptide C160 (V11I, C38A, K53A, C76A, D110A, C127A) (human) (UniProt Q14116)", "sequence (Q14116 37-193 V47I/C74A/K89A/C112A/D146A/C163A)": "as the sequence (Q14116 37-193 V47I/C74A/K89A/T99A/C112A/C163A) above, with A63T, D110A counted along it"}, "[5]": {"biological_target": "IL-18 polypeptide of SEQ ID NO: 1 (native sequence) (human) (UniProt Q14116)", "sequence (Q14116 37-193)": "as the sequence (Q14116 37-193 V47I/C74A/K89A/T99A/C112A/C163A) above, with I11V, A38C, A53K, A63T, A76C, A127C counted along it"}, "[6]": {"biological_target": "IL-18 polypeptide of SEQ ID NO: 59 (E6K, C38A, K53A) (human) (UniProt Q14116)", "sequence (Q14116 other isoform, or with tags, fused parts or gaps C38A K53A C38A K53A)": "as the sequence (Q14116 37-193 V47I/C74A/K89A/T99A/C112A/C163A) above, with E6K, I11V, A63T, A76C, A127C counted along it"}, "[7]": {"biological_target": "IL-18 polypeptide C147 (V11I, C38A, K53A, D54A, C76A, C127A) (human) (UniProt Q14116)", "sequence (Q14116 37-193 V47I/C74A/K89A/D90A/C112A/C163A)": "as the sequence (Q14116 37-193 V47I/C74A/K89A/T99A/C112A/C163A) above, with D54A, A63T counted along it"}, "[8]": {"biological_target": "IL-18 polypeptide of SEQ ID NO: 48 (C38S, C68S, C76S, C127S, K70C) (human) (UniProt Q14116)", "sequence (Q14116 37-193 C74S/C104S/K106C/C112S/C163S)": "as the sequence (Q14116 37-193 V47I/C74A/K89A/T99A/C112A/C163A) above, with I11V, A38S, A53K, A63T, C68S, K70C, A76S, A127S counted along it"}, "[9]": {"biological_target": "IL-18 polypeptide of SEQ ID NO: 52 (E06K, T63A) (human) (UniProt Q14116)", "sequence (Q14116 37-193 E42K/T99A)": "as the sequence (Q14116 37-193 V47I/C74A/K89A/T99A/C112A/C163A) above, with E6K, I11V, A38C, A53K, A76C, A127C counted along it"}, "[10]": {"biological_target": "IL-18 polypeptide C168 (V11I, C38A, C76A, S105K, C127A) (human) (UniProt Q14116)", "sequence (Q14116 37-193 V47I/C74A/C112A/S141K/C163A)": "as the sequence (Q14116 37-193 V47I/C74A/K89A/T99A/C112A/C163A) above, with A53K, A63T, S105K counted along it"}, "[11]": {"biological_target": "IL-18 polypeptide of SEQ ID NO: 34 (E06K, K53A, S55A) (human) (UniProt Q14116)", "sequence (Q14116 37-193 E42K/K89A/S91A)": "as the sequence (Q14116 37-193 V47I/C74A/K89A/T99A/C112A/C163A) above, with E6K, I11V, A38C, S55A, A63T, A76C, A127C counted along it"}, "[12]": {"biological_target": "IL-18 polypeptide of SEQ ID NO: 39 (E06K, K53A) (human) (UniProt Q14116)", "sequence (Q14116 37-193 E42K/K89A)": "as the sequence (Q14116 37-193 V47I/C74A/K89A/T99A/C112A/C163A) above, with E6K, I11V, A38C, A63T, A76C, A127C counted along it"}, "[13]": {"biological_target": "IL-18 polypeptide of SEQ ID NO: 55 (K53A, T63A, C38S, C68S, C76S, C127S, K70C) (human) (UniProt Q14116)", "sequence (Q14116 37-193 C74S/K89A/T99A/C104S/K106C/C112S/C163S)": "as the sequence (Q14116 37-193 V47I/C74A/K89A/T99A/C112A/C163A) above, with I11V, A38S, C68S, K70C, A76S, A127S counted along it"}, "[14]": {"biological_target": "IL-18 polypeptide C151 (V11I, D35A, C38A, K53A, C76A, C127A) (human) (UniProt Q14116)", "sequence (Q14116 37-193 V47I/D71A/C74A/K89A/C112A/C163A)": "as the sequence (Q14116 37-193 V47I/C74A/K89A/T99A/C112A/C163A) above, with D35A, A63T counted along it"}, "[15]": {"biological_target": "IL-18 polypeptide C154 (V11I, E31A, D37A, C38A, K53A, C76A, C127A) (human) (UniProt Q14116)", "sequence (Q14116 37-193 V47I/E67A/D73A/C74A/K89A/C112A/C163A)": "as the sequence (Q14116 37-193 V47I/C74A/K89A/T99A/C112A/C163A) above, with E31A, D37A, A63T counted along it"}, "[16]": {"biological_target": "IL-18 polypeptide C166 (V11I, C38A, S55T, C76A, C127A) (human) (UniProt Q14116)", "sequence (Q14116 37-193 V47I/C74A/S91T/C112A/C163A)": "as the sequence (Q14116 37-193 V47I/C74A/K89A/T99A/C112A/C163A) above, with A53K, S55T, A63T counted along it"}, "[17]": {"biological_target": "IL-18 polypeptide C149 (V11I, E31A, C38A, K53A, C76A, C127A) (human) (UniProt Q14116)", "sequence (Q14116 37-193 V47I/E67A/C74A/K89A/C112A/C163A)": "as the sequence (Q14116 37-193 V47I/C74A/K89A/T99A/C112A/C163A) above, with E31A, A63T counted along it"}, "[18]": {"biological_target": "IL-18 polypeptide of SEQ ID NO: 57 (E6K, C38S, K53A) (human) (UniProt Q14116)", "sequence (Q14116 other isoform, or with tags, fused parts or gaps C38S K53A C38S K53A)": "as the sequence (Q14116 37-193 V47I/C74A/K89A/T99A/C112A/C163A) above, with E6K, I11V, A38S, A63T, A76C, A127C counted along it"}, "[19]": {"biological_target": "IL-18 polypeptide C150 (V11I, T34A, C38A, K53A, C76A, C127A) (human) (UniProt Q14116)", "sequence (Q14116 37-193 V47I/T70A/C74A/K89A/C112A/C163A)": "as the sequence (Q14116 37-193 V47I/C74A/K89A/T99A/C112A/C163A) above, with T34A, A63T counted along it"}, "[20]": {"biological_target": "IL-18 polypeptide of SEQ ID NO: 43 (E06K, K53A, S55A, Y01G) (human) (UniProt Q14116)", "sequence (Q14116 37-193 Y37G/E42K/K89A/S91A)": "as the sequence (Q14116 37-193 V47I/C74A/K89A/T99A/C112A/C163A) above, with Y1G, E6K, I11V, A38C, S55A, A63T, A76C, A127C counted along it"}, "[21]": {"biological_target": "IL-18 polypeptide of SEQ ID NO: 42 (E06K, K53A, S55A, T63A) (human) (UniProt Q14116)", "sequence (Q14116 37-193 E42K/K89A/S91A/T99A)": "as the sequence (Q14116 37-193 V47I/C74A/K89A/T99A/C112A/C163A) above, with E6K, I11V, A38C, S55A, A76C, A127C counted along it"}, "[22]": {"biological_target": "IL-18 polypeptide of SEQ ID NO: 54 (E06K, K53A, C38S, C68S, C76S, C127S, K70C) (human) (UniProt Q14116)", "sequence (Q14116 37-193 E42K/C74S/K89A/C104S/K106C/C112S/C163S)": "as the sequence (Q14116 37-193 V47I/C74A/K89A/T99A/C112A/C163A) above, with E6K, I11V, A38S, A63T, C68S, K70C, A76S, A127S counted along it"}, "[23]": {"biological_target": "IL-18 polypeptide C162 (K8E, V11I, C38A, C76A, Q103R, C127A) (human) (UniProt Q14116)", "sequence (Q14116 other isoform, or with tags, fused parts or gaps V11I C38A C76A Q103R C127A V11I C38A C76A Q103R C127A)": "as the sequence (Q14116 37-193 V47I/C74A/K89A/T99A/C112A/C163A) above, with K8E, A53K, A63T, Q103R counted along it"}, "[24]": {"biological_target": "IL-18 polypeptide of SEQ ID NO: 4 (E6K, C38A, K53A, C68A, M86C) (human) (UniProt Q14116)", "sequence (Q14116 other isoform, or with tags, fused parts or gaps C38A K53A C68A M86C C38A K53A C68A M86C)": "as the sequence (Q14116 37-193 V47I/C74A/K89A/T99A/C112A/C163A) above, with E6K, I11V, A63T, C68A, A76C, M86C, A127C counted along it"}, "[25]": {"biological_target": "IL-18 polypeptide of SEQ ID NO: 9 (E6K, C38A, K53A, C68A, D98C) (human) (UniProt Q14116)", "sequence (Q14116 other isoform, or with tags, fused parts or gaps C38A K53A C68A D98C C38A K53A C68A D98C)": "as the sequence (Q14116 37-193 V47I/C74A/K89A/T99A/C112A/C163A) above, with E6K, I11V, A63T, C68A, A76C, D98C, A127C counted along it"}, "[26]": {"biological_target": "IL-18 polypeptide C156 (V11I, C38A, N41A, K53A, C76A, C127A) (human) (UniProt Q14116)", "sequence (Q14116 37-193 V47I/C74A/N77A/K89A/C112A/C163A)": "as the sequence (Q14116 37-193 V47I/C74A/K89A/T99A/C112A/C163A) above, with N41A, A63T counted along it"}, "[27]": {"biological_target": "IL-18 polypeptide of SEQ ID NO: 5 (E6K, V11I, C38A, K53A, T63A, C68A, C76A, M86C, C127A) (human) (UniProt Q14116)", "sequence (Q14116 other isoform, or with tags, fused parts or gaps with the stated changes)": "as the sequence (Q14116 37-193 V47I/C74A/K89A/T99A/C112A/C163A) above, with E6K, C68A, M86C counted along it"}, "[28]": {"biological_target": "IL-18 polypeptide of SEQ ID NO: 41 (K53A, S55A) (human) (UniProt Q14116)", "sequence (Q14116 37-193 K89A/S91A)": "as the sequence (Q14116 37-193 V47I/C74A/K89A/T99A/C112A/C163A) above, with I11V, A38C, S55A, A63T, A76C, A127C counted along it"}},
  "data": [
    {"substance": "Fc-fused human IL-18 binding protein isoform a (IL-18BPa) (from UniProt O95998 31-194) (Fc fusion)", "values": [
      {"measurement": "IC50 of IL-18BPa inhibition of IFNγ induction in NK-92 cells", "setting": "[1]", "value": 10.2, "unit": "nM"},
      {"measurement": "IC50 of IL-18BPa inhibition of IFNγ induction in NK-92 cells", "setting": "[2]", "value": 3.71, "unit": "nM"},
      {"measurement": "IC50 of IL-18BPa inhibition of IFNγ induction in NK-92 cells", "setting": "[3]", "value": 7.29, "unit": "nM"},
      {"measurement": "IC50 of IL-18BPa inhibition of IFNγ induction in NK-92 cells", "setting": "[4]", "value": 1.07, "unit": "nM"},
      {"measurement": "IC50 of IL-18BPa inhibition of IFNγ induction in NK-92 cells", "setting": "[5]", "value": 1.47, "unit": "nM"},
      {"measurement": "IC50 of IL-18BPa inhibition of IFNγ induction in NK-92 cells", "setting": "[6]", "value": 146, "unit": "nM"},
      {"measurement": "IC50 of IL-18BPa inhibition of IFNγ induction in NK-92 cells", "setting": "[7]", "value": 5.05, "unit": "nM"},
      {"measurement": "IC50 of IL-18BPa inhibition of IFNγ induction in NK-92 cells", "setting": "[8]", "value": 0.114, "unit": "nM"},
      {"measurement": "IC50 of IL-18BPa inhibition of IFNγ induction in NK-92 cells", "setting": "[9]", "value": 47.1, "unit": "nM"},
      {"measurement": "IC50 of IL-18BPa inhibition of IFNγ induction in NK-92 cells", "setting": "[10]", "value": 5.85, "unit": "nM"},
      {"measurement": "IC50 of IL-18BPa inhibition of IFNγ induction in NK-92 cells", "setting": "[11]", "value": 229, "unit": "nM"},
      {"measurement": "IC50 of IL-18BPa inhibition of IFNγ induction in NK-92 cells", "setting": "[12]", "value": "> 703", "unit": "nM"},
      {"measurement": "IC50 of IL-18BPa inhibition of IFNγ induction in NK-92 cells", "setting": "[13]", "value": "> 1000", "unit": "nM"},
      {"measurement": "IC50 of IL-18BPa inhibition of IFNγ induction in NK-92 cells", "setting": "[14]", "value": 7.85, "unit": "nM"},
      {"measurement": "IC50 of IL-18BPa inhibition of IFNγ induction in NK-92 cells", "setting": "[15]", "value": 3.23, "unit": "nM"},
      {"measurement": "IC50 of IL-18BPa inhibition of IFNγ induction in NK-92 cells", "setting": "[16]", "value": 0.809, "unit": "nM"},
      {"measurement": "IC50 of IL-18BPa inhibition of IFNγ induction in NK-92 cells", "setting": "[17]", "value": 21.3, "unit": "nM"},
      {"measurement": "IC50 of IL-18BPa inhibition of IFNγ induction in NK-92 cells", "setting": "[18]", "value": 1.62, "unit": "nM"},
      {"measurement": "IC50 of IL-18BPa inhibition of IFNγ induction in NK-92 cells", "setting": "[19]", "value": 3.62, "unit": "nM"},
      {"measurement": "IC50 of IL-18BPa inhibition of IFNγ induction in NK-92 cells", "setting": "[20]", "value": 27.8, "unit": "nM"},
      {"measurement": "IC50 of IL-18BPa inhibition of IFNγ induction in NK-92 cells", "setting": "[21]", "value": 1060, "unit": "nM"},
      {"measurement": "IC50 of IL-18BPa inhibition of IFNγ induction in NK-92 cells", "setting": "[22]", "value": 23.5, "unit": "nM"},
      {"measurement": "IC50 of IL-18BPa inhibition of IFNγ induction in NK-92 cells", "setting": "[23]", "value": 0.823, "unit": "nM"},
      {"measurement": "IC50 of IL-18BPa inhibition of IFNγ induction in NK-92 cells", "setting": "[24]", "value": 396, "unit": "nM"},
      {"measurement": "IC50 of IL-18BPa inhibition of IFNγ induction in NK-92 cells", "setting": "[25]", "value": 961, "unit": "nM"},
      {"measurement": "IC50 of IL-18BPa inhibition of IFNγ induction in NK-92 cells", "setting": "[26]", "value": 6.08, "unit": "nM"},
      {"measurement": "IC50 of IL-18BPa inhibition of IFNγ induction in NK-92 cells", "setting": "[27]", "value": 62.4, "unit": "nM"},
      {"measurement": "IC50 of IL-18BPa inhibition of IFNγ induction in NK-92 cells", "setting": "[28]", "value": 37.3, "unit": "nM"}
    ]}
  ]
}
